The target of one test is T1, His-CRS (UniProt P49589 1-748).
T1 construct: not shown: His tag
T1 sequence (looked up): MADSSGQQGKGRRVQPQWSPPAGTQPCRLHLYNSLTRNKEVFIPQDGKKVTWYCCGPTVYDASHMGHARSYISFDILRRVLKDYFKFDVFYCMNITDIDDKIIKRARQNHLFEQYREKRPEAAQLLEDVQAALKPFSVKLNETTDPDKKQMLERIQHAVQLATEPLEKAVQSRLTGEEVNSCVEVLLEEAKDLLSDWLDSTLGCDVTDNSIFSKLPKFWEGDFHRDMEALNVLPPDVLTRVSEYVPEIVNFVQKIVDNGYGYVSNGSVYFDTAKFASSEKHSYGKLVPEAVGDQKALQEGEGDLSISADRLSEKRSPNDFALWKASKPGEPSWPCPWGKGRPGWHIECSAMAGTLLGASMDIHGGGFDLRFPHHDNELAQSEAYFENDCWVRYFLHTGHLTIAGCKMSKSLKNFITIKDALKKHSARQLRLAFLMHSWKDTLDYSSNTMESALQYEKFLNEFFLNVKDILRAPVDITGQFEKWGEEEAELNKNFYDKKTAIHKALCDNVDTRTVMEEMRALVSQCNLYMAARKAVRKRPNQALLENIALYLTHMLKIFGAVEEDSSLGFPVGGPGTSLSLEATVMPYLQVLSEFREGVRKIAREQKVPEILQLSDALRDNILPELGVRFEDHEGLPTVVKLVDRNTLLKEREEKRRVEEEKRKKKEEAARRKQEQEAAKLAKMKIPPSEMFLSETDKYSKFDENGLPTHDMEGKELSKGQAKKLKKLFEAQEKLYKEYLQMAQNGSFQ
Description: ELISA, coated His-CRS, absorbance at 450 nm. Here is the method: (§1) On a 96-well plate (Corning 3690 flat bottom, 96-well half-area plates), MRS proteins (His-MRS, MRS full) and other ARS proteins (DX2 tag free, 34S-DX2, 34S-AIMP2, His-CRS, His-AIMP1, His-GRS, His-WRS, His-KRS) were each coated at a concentration of 1 μg/ml. 8A12 antibody was added at a concentration of 500 ng/ml to the 96-well plate coated with coated with each of the ARS proteins, followed by incubation for 1 hour. Thereafter, HRP-conjugated anti-mouse IgG secondary antibody was added, followed by incubation for 1 hour, and the absorbance at 450 nm was measured by ELISA. As a substrate, 3,3′,5,5′-tetramethylbenzidine (TMB) was used.

For the next test, the target named is T2, His-GRS (UniProt P41250 55-739).
T2 construct: not shown: His tag
T2 sequence (looked up): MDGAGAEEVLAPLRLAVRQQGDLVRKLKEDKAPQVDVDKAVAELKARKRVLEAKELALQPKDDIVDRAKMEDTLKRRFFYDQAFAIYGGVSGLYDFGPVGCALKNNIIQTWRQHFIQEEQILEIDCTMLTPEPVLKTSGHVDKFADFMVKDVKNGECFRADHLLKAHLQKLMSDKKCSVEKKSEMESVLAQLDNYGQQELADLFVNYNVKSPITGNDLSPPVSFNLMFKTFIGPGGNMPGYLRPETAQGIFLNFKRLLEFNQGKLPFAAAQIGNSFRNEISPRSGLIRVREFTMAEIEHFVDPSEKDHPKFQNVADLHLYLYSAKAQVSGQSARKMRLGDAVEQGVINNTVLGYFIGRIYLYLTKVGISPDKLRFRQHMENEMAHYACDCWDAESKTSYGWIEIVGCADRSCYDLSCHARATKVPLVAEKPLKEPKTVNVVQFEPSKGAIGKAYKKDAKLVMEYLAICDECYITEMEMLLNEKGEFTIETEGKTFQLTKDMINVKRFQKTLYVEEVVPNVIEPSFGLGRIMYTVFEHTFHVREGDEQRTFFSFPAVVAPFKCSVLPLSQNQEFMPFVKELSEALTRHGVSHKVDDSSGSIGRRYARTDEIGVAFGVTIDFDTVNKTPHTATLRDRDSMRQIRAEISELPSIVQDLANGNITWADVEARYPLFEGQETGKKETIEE
Description: ELISA, coated His-GRS, absorbance at 450 nm. Here is the method:
as §1
A general note: In an ELISA, binding on a coated surface is turned into a signal by an enzyme label.

A further test has as its target T3, His-KRS (UniProt Q15046 1-597).
T3 construct: not shown: His tag
The test is described as follows: ELISA, coated His-KRS, absorbance at 450 nm. Here is the method:
as §1

The target in the next test is T4, His-WRS (UniProt P23381 1-471, limits assumed).
T4 construct: not shown: His tag
T4 sequence (looked up): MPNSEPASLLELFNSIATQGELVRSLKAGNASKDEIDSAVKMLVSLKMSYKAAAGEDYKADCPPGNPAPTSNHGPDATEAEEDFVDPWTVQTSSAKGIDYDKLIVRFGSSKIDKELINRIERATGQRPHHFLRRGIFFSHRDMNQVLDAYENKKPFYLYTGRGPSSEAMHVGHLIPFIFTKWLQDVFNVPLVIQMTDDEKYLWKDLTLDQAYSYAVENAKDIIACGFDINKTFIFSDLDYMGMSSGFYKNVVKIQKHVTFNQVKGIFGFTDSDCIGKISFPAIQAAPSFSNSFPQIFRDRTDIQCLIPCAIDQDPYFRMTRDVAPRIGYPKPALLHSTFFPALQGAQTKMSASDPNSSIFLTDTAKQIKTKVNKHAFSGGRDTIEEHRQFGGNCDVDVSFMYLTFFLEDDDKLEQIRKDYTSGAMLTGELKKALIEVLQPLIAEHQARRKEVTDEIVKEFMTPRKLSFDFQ
The test is described as follows: ELISA, coated His-WRS, absorbance at 450 nm. The method, then: as §1

Test [1] deals with T5, MRS fragment peptide of aa 851-880 (human).
T5 peptide: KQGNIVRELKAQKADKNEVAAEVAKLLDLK
Description: ELISA, peptide coated at 300 ng/well, antibody at 10 nM. Here is the method:
The 8A12 antibody as a primary antibody was diluted to 10 nM (1× PBST-Tween 0.05%), and HRP-conjugated Goat anti-mouse IgG (Thermo) as a secondary antibody was diluted at 1:10000 (1×PBST-Tween0.05%), and the absorbance was measured at 450 nm.

The target of another test is T6, 34S-AIMP2 (UniProt Q13155 1-320).
T6 construct: The meaning of 34S is unknown
T6 sequence (looked up): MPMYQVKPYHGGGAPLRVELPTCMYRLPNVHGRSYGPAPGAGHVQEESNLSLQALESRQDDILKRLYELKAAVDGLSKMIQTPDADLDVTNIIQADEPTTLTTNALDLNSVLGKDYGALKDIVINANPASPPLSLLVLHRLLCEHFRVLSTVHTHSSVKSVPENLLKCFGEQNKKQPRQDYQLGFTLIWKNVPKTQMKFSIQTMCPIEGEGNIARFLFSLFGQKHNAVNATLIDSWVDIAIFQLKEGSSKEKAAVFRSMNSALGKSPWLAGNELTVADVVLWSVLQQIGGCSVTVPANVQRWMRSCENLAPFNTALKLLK
Description: ELISA, coated 34S-AIMP2, absorbance at 450 nm. Here is the method: as §1

For the next test, the target named is T7, His-AIMP1 (UniProt Q12904 1-312, limits assumed).
T7 construct: not shown: His tag
T7 sequence (looked up): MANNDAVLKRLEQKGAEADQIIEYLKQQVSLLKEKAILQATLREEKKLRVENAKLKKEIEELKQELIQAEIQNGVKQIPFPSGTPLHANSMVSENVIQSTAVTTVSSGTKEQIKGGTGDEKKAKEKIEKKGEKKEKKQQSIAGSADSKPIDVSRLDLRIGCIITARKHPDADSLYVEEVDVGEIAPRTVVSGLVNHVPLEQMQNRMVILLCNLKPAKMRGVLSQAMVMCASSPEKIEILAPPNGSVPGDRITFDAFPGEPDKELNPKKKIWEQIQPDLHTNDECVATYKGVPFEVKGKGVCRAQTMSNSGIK
The test is described as follows: ELISA, coated His-AIMP1, absorbance at 450 nm. Here is the method:
as §1

The target of test [2] is T8, aminoacyl-tRNA synthetase complex-interacting multifunctional protein 3 (AIMP3) (Homo sapiens (Human), UniProt O43324 1-174, limits assumed).
T8 construct: The construct of the AIMP3-alone protein is not described; also called AIMP3 protein
T8 sequence: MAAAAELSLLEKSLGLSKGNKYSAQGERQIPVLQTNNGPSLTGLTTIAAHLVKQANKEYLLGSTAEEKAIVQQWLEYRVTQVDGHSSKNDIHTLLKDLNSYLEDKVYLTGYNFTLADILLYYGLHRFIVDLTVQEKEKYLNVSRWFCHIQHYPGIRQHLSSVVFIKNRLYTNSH
Description: SPR, AIMP3 protein on a CM5 chip, 8A12 antibody as analyte at 0.20 to 200 nM. The method, then:
(§2) To investigate MRS-specific affinity of the 8A12 antibody, a surface plasmon resonance (SPR) test was performed using MRS-AIMP3 co-purified protein (hereinafter, MRS+AIMP3 protein) and AIMP3 protein. MRS+AIMP3 or AIMP3 protein was coated on a CM5 chip and the 8A12 antibody was allowed to flow down, thereby measuring the degree of binding response of the protein. An analyte sample or buffer was injected at a flow rate of 30 μl/min for 8 minutes, and washed for 20 minutes.

Test [3] concerns the target T9, MRS-AIMP3 co-purified protein (human, UniProt P56192 1-900; O43324 1-174, limits assumed).
T9 construct: Complex of MRS and AIMP3, co-expressed in E. coli BL21DE3 and co-purified; also called MRS+AIMP3 protein
T9 sequence 1: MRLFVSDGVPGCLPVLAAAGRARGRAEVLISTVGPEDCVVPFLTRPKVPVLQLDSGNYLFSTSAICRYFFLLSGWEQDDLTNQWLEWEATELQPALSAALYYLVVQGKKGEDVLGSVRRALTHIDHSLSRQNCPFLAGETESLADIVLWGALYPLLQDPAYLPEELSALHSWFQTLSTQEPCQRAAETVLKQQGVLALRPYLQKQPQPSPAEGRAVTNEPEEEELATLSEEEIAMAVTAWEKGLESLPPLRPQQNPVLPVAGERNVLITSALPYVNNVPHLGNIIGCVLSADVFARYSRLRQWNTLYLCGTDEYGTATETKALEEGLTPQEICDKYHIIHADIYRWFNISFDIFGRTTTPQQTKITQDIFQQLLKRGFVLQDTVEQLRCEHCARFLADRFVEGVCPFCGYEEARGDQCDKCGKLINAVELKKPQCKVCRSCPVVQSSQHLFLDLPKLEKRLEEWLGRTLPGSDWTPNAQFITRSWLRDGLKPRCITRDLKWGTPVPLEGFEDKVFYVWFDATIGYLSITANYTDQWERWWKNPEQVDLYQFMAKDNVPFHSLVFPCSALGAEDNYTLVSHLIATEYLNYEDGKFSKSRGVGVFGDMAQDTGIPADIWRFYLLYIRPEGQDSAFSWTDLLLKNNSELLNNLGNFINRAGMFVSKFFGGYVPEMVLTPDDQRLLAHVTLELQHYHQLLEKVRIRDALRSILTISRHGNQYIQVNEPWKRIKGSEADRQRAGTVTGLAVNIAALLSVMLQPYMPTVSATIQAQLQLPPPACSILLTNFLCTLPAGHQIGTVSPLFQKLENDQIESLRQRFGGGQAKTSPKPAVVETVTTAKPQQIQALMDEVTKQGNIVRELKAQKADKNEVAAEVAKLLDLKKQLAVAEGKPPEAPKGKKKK
T9 sequence 2: T8 sequence
The test is described as follows: SPR, MRS+AIMP3 protein on a CM5 chip, 8A12 antibody as analyte at 0.39 to 200 nM. The method, then: as §2

Test [4] has as its target T9, MRS-AIMP3 co-purified protein. Description: SPR, MRS+AIMP3 protein coated on CM5 chip, antibody as analyte; MRS+AIMP3 co-purified protein on the CM5 chip, 8A12 antibody as analyte. Here is the method:
as §2
For orientation: Surface plasmon resonance follows binding to a sensor surface in real time, without labels.

Results on 1 molecule are retold here after patent publication US20200225234A1 (ONCOTAG DIAGNOSTICS, published 2020).

For orientation: koff means a measure of how fast the partners let go of each other. A high value points to fast dissociation. As a reminder, the kon is a measure of how fast the partners come together. One may read the Kd as the concentration at which binding is half-saturated. Low readings indicate tighter binding, high ones weaker binding.

T3 sequence (Q15046 whole entry): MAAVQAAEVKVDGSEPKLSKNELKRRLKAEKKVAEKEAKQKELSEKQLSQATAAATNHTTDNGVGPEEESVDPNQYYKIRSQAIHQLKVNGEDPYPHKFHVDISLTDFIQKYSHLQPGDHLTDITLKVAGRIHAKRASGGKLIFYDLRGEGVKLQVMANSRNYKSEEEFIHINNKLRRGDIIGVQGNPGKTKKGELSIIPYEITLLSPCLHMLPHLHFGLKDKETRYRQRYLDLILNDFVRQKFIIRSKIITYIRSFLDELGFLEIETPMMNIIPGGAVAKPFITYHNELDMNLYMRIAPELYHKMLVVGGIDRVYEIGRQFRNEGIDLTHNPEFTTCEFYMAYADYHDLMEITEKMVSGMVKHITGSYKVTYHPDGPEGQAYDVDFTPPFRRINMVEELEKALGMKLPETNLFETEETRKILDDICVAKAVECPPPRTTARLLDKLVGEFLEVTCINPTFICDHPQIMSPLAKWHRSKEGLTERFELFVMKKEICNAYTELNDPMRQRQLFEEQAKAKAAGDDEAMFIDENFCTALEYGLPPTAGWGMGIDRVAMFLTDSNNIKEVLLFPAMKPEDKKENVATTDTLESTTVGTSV

B1: 8A12 antibody (whole 8A12 IgG antibody) (antibody, V domains shown)
VH: DVKLQESGPGLVKPSQSLSLTCTVTGYSITSEYAWTWIRQFPGNKLEWMGYINYNGNTNLNPSLKSRISIIRDTSKNQFFLQLNSVTTEDTATYYCARSLWPRGWFAYWGQGTLVTVSA
VL: DIQMTQSPSSMYASLGERVTITCKASQDINSYLSWFQQKPGKSPKTLMYRANRLVDGVPSRFSGSGSGQDYSLTISSLEYEDMGIYYCLQYDEFPRTFGGGTKLEIKA
notes: Mouse monoclonal antibody from hybridoma 8A12; It was also made recombinantly in 293F cells with mouse IgG2a heavy and mouse kappa light chain vectors; also called MRS antibody; 8A12 clone expression antibody
As to B1, the binding result in the test with His-CRS is “no binding”; in the test with His-GRS, “no binding”; with His-KRS, “no binding”; with His-WRS, “no binding”; in [1], “binds”; in the test with 34S-AIMP2, “no binding”. Besides, the results for the binding result (in the test with His-AIMP1; in [2]) were “no binding” and “no binding (tested: 200 nM)”, respectively. In test [3], this molecule displayed a koff of 0.000213 s⁻¹. In addition, the kon in test [3] was 137000 M⁻¹ s⁻¹. The molecule also showed a Kd in [4] of 1.56 nM.
